Measurements from the supplement of paper PMC9116672.
± gives the standard deviation of the averaged measurements or the uncertainty stated by the source.

Assays:
[1] = duplex melting temperature (HRM, EvaGreen); higher = more stable duplex
In short: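 After 1:1 annealing at 25 μM, complementary phosphodiester or phosphorothioate strands (Rp/Sp mixtures) were brought to 1–20 μM duplex in NNE buffer (500 mM NaCl, pH 7.0) with 1× EvaGreen and heated at 0.1°C/s from 37°C to 97°C while a LightCycler96 monitored fluorescence (470/514 nm). The melting temperature is the negative dF/dT peak reported by the instrument software, averaged over replicates with a clear peak.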

[2] = duplex formation free energy ΔG50 (Van't Hoff fit of HRM Tm); higher = less stable duplex; conditions: temperature for dG: 50 °C, NaCl: 500 mM (unadjusted)
In short: (§1)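 DNA duplexes with phosphodiester or phosphorothioate strands (mixed Rp/Sp for the latter) were annealed 1:1 and melted at 1–20 μM in four replicate samples, using 1× NNE buffer (500 mM NaCl, pH 7.0) with 1× EvaGreen on a LightCycler96 from 37 to 97°C at 0.1°C/s. Enthalpy and entropy come from a linear Van't Hoff regression of 1/Tm, with Tm taken as the peak of -dF/dT, against ln(CT/4), and free energy is extrapolated from that fit to a set temperature, which is 50°C. Values are not salt-adjusted, and errors are fit standard deviations.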

[3] = duplex formation enthalpy ΔH (Van't Hoff fit of HRM Tm); higher = less exothermic duplex formation; conditions: temperature for dG: 50 °C, NaCl: 500 mM (unadjusted)
In short: as §1

[4] = duplex formation entropy ΔS (Van't Hoff fit of HRM Tm); higher = smaller entropy loss on duplex formation; conditions: temperature for dG: 50 °C, NaCl: 500 mM (unadjusted)
In short: as §1

[5] = duplex concentration 1 µM, backbone: PO-PO (both strands phosphodiester DNA)
[6] = duplex concentration 1 µM, backbone: PS-PO (listed strand fully phosphorothioate, complement phosphodiester)
[7] = duplex concentration 1 µM, backbone: PS-PS (both strands fully phosphorothioate)
[8] = duplex concentration 2.5 µM, backbone: PO-PO (both strands phosphodiester DNA)
[9] = duplex concentration 2.5 µM, backbone: PS-PO (listed strand fully phosphorothioate, complement phosphodiester)
[10] = duplex concentration 2.5 µM, backbone: PS-PS (both strands fully phosphorothioate)
[11] = duplex concentration 5 µM, backbone: PO-PO (both strands phosphodiester DNA)
[12] = duplex concentration 5 µM, backbone: PS-PO (listed strand fully phosphorothioate, complement phosphodiester)
[13] = duplex concentration 5 µM, backbone: PS-PS (both strands fully phosphorothioate)
[14] = duplex concentration 7.5 µM, backbone: PO-PO (both strands phosphodiester DNA)
[15] = duplex concentration 7.5 µM, backbone: PS-PO (listed strand fully phosphorothioate, complement phosphodiester)
[16] = duplex concentration 7.5 µM, backbone: PS-PS (both strands fully phosphorothioate)
[17] = duplex concentration 10 µM, backbone: PO-PO (both strands phosphodiester DNA)
[18] = duplex concentration 10 µM, backbone: PS-PO (listed strand fully phosphorothioate, complement phosphodiester)
[19] = duplex concentration 10 µM, backbone: PS-PS (both strands fully phosphorothioate)
[20] = duplex concentration 15 µM, backbone: PO-PO (both strands phosphodiester DNA)
[21] = duplex concentration 15 µM, backbone: PS-PO (listed strand fully phosphorothioate, complement phosphodiester)
[22] = duplex concentration 15 µM, backbone: PS-PS (both strands fully phosphorothioate)
[23] = duplex concentration 20 µM, backbone: PO-PO (both strands phosphodiester DNA)
[24] = duplex concentration 20 µM, backbone: PS-PO (listed strand fully phosphorothioate, complement phosphodiester)
[25] = duplex concentration 20 µM, backbone: PS-PS (both strands fully phosphorothioate)
[26] = backbone: PO-PO (both strands phosphodiester DNA)
[27] = backbone: PS-PO (listed strand fully phosphorothioate, complement phosphodiester)
[28] = backbone: PS-PS (both strands fully phosphorothioate)

Sequence | duplex melting temperature [1, 5] | duplex melting temperature [1, 6] | duplex melting temperature [1, 7] | duplex melting temperature [1, 8] | duplex melting temperature [1, 9] | duplex melting temperature [1, 10] | duplex melting temperature [1, 11] | duplex melting temperature [1, 12] | duplex melting temperature [1, 13] | duplex melting temperature [1, 14] | duplex melting temperature [1, 15] | duplex melting temperature [1, 16] | duplex melting temperature [1, 17] | duplex melting temperature [1, 18] | duplex melting temperature [1, 19] | duplex melting temperature [1, 20] | duplex melting temperature [1, 21] | duplex melting temperature [1, 22] | duplex melting temperature [1, 23] | duplex melting temperature [1, 24] | duplex melting temperature [1, 25] | duplex formation free energy ΔG50 [2, 26] | duplex formation free energy ΔG50 [2, 27] | duplex formation free energy ΔG50 [2, 28] | duplex formation enthalpy ΔH [3, 26] | duplex formation enthalpy ΔH [3, 27] | duplex formation enthalpy ΔH [3, 28] | duplex formation entropy ΔS [4, 26] | duplex formation entropy ΔS [4, 27] | duplex formation entropy ΔS [4, 28]
AATGTCGAACAGCAATT | 63.06 ± 0.22 °C | 56.56 ± 0.11 °C | 47.17 ± 0.34 °C | 65.17 ± 0.47 °C | 59.08 ± 0.19 °C | 50.7 ± 0.2 °C | 67.17 ± 0.36 °C | 61.32 ± 0.12 °C | 53 ± 0.2 °C | 68.45 ± 0.29 °C | 62.61 ± 0.066 °C | 54.22 ± 0.19 °C | 69.46 ± 0.13 °C | 63.46 ± 0.16 °C | 54.99 ± 0.23 °C | 70.74 ± 0.12 °C | 64.55 ± 0.19 °C | 56.34 ± 0.18 °C | 71.86 ± 0.12 °C | 65.45 ± 0.21 °C | 57.25 ± 0.45 °C | -52.4 ± 0.628 kJ/mol | -47.01 ± 0.268 kJ/mol | -38.76 ± 0.138 kJ/mol | -311 ± 11.3 kJ/mol | -311 ± 7.11 kJ/mol | -267 ± 9.62 kJ/mol | -192 ± 8 cal/mol/K | -195 ± 5.2 cal/mol/K | -169 ± 7 cal/mol/K
GAGGCAGCCGCGACCTG |  |  | 63.68 ± 0.2 °C | 79.56 ± 0.14 °C | 72.02 ± 0.12 °C | 66.28 ± 0.29 °C | 81.39 ± 0.49 °C | 74.37 ± 0.34 °C | 68.52 ± 0.17 °C | 82.28 ± 0.58 °C | 75.9 ± 0.24 °C | 69.83 ± 0.094 °C | 82.97 ± 0.38 °C | 76.878 ± 0.05 °C | 70.65 ± 0.094 °C | 83.76 ± 0.16 °C | 77.946 ± 0.052 °C | 71.79 ± 0.097 °C | 84.53 ± 0.52 °C | 78.61 ± 0.15 °C | 72.633 ± 0.05 °C |  | -59.7 ± 1.13 kJ/mol | -53.87 ± 0.326 kJ/mol |  | -329 ± 14.6 kJ/mol | -321 ± 5.86 kJ/mol |  | -199 ± 10 cal/mol/K | -198 ± 4 cal/mol/K
GGTTGCGGTGGCCAAC |  |  |  | 72.47 ± 0.19 °C |  |  | 74.78 ± 0.39 °C | 59.24 ± 0.17 °C |  | 75.96 ± 0.48 °C | 59.89 ± 0.26 °C | 53.12 ± 0.24 °C | 76.87 ± 0.44 °C | 60.61 ± 0.24 °C | 53.68 ± 0.31 °C | 77.98 ± 0.31 °C | 61.52 ± 0.21 °C | 54.3 ± 0.32 °C | 78.76 ± 0.29 °C | 62.17 ± 0.44 °C | 54.47 ± 0.31 °C | -61.4 ± 1.51 kJ/mol |  |  | -349 ± 19.7 kJ/mol |  |  | -213 ± 13 cal/mol/K |  | 
CGTGTGGATAATTAGCT | 61.98 ± 0.083 °C |  | 45.73 ± 0.44 °C | 64.1 ± 0.3 °C | 56.74 ± 0.17 °C | 48.55 ± 0.15 °C | 65.87 ± 0.1 °C | 58.92 ± 0.14 °C | 50.38 ± 0.16 °C | 66.87 ± 0.1 °C | 59.81 ± 0.096 °C | 51.21 ± 0.21 °C | 67.8 ± 0.11 °C | 60.627 ± 0.006 °C | 51.88 ± 0.24 °C | 68.959 ± 0.05 °C | 61.686 ± 0.014 °C | 52.84 ± 0.21 °C | 69.9 ± 0.083 °C | 62.48 ± 0.14 °C | 53.67 ± 0.26 °C | -53.01 ± 0.414 kJ/mol | -45.43 ± 0.31 kJ/mol | -36.64 ± 0.1 kJ/mol | -351 ± 8.37 kJ/mol | -339 ± 10 kJ/mol | -336 ± 12.6 kJ/mol | -220 ± 5.9 cal/mol/K | -217 ± 7.2 cal/mol/K | -221 ± 9.2 cal/mol/K
CTAAACTGTTATAGCCGG |  |  | 46.18 ± 0.36 °C | 66.43 ± 0.32 °C | 58.77 ± 0.43 °C | 48.97 ± 0.4 °C | 67.83 ± 0.25 °C | 60.28 ± 0.38 °C | 51.09 ± 0.26 °C | 68.83 ± 0.28 °C | 61.66 ± 0.5 °C | 52.63 ± 0.18 °C | 70.13 ± 0.37 °C | 62.55 ± 0.4 °C | 53.4 ± 0.36 °C | 71.19 ± 0.13 °C | 63.71 ± 0.22 °C | 55.1 ± 0.25 °C | 72.08 ± 0.077 °C | 64.43 ± 0.18 °C | 56.27 ± 0.23 °C | -55.1 ± 1.92 kJ/mol | -46.7 ± 0.502 kJ/mol | -37.57 ± 0.121 kJ/mol | -351 ± 34.3 kJ/mol | -324 ± 13.8 kJ/mol | -261 ± 10.5 kJ/mol | -219 ± 24 cal/mol/K | -205 ± 9.7 cal/mol/K | -166 ± 7.6 cal/mol/K
TTGTAGTTGACGTTTGTGATTTAGTGAATT | 75.58 ± 0.12 °C | 66.16 ± 0.47 °C | 57.2 ± 0.68 °C | 76.626 ± 0.046 °C | 67.48 ± 0.5 °C | 59 ± 0.58 °C | 77.623 ± 0.046 °C | 68.57 ± 0.46 °C | 60.27 ± 0.37 °C | 78.24 ± 0.12 °C | 69.28 ± 0.39 °C | 60.98 ± 0.26 °C | 78.646 ± 0.027 °C | 69.64 ± 0.24 °C | 61.54 ± 0.13 °C | 78.98 ± 0.12 °C | 70.23 ± 0.23 °C | 62.29 ± 0.073 °C | 79.7 °C | 70.83 ± 0.099 °C | 62.84 ± 0.14 °C | -97.8 ± 2.72 kJ/mol | -70.9 ± 1 kJ/mol | -52.07 ± 0.339 kJ/mol | -778 ± 34.3 kJ/mol | -631 ± 17.6 kJ/mol | -504 ± 10.5 kJ/mol | -503 ± 23 cal/mol/K | -414 ± 12 cal/mol/K | -335 ± 7.4 cal/mol/K
TAGACGCGGCCTCTTTCC | 73.91 ± 0.44 °C | 67.6 °C |  | 74.76 ± 0.23 °C | 69 ± 0.71 °C |  | 76.52 ± 0.15 °C | 70.8 ± 0.46 °C |  | 77.7 ± 0.27 °C | 71.32 ± 0.62 °C | 66.47 ± 0.089 °C | 78.58 ± 0.21 °C | 72.01 ± 0.38 °C | 67.44 ± 0.059 °C | 79.83 ± 0.13 °C | 73.3 ± 0.19 °C | 68.13 ± 0.13 °C | 80.63 ± 0.22 °C | 73.84 ± 0.11 °C | 68.81 ± 0.13 °C | -68.6 ± 2.85 kJ/mol | -62.3 ± 1.34 kJ/mol | -56.1 ± 2.34 kJ/mol | -417 ± 36 kJ/mol | -430 ± 21.3 kJ/mol | -423 ± 46 kJ/mol | -258 ± 24 cal/mol/K | -272 ± 15 cal/mol/K | -272 ± 32 cal/mol/K
